Laboratory results as given in doi:10.1101/2021.06.08.447469.

T1: MbpAgo (Mucilaginibacter paludis, UniProt H1YCU5 1-795)
T1 sequence: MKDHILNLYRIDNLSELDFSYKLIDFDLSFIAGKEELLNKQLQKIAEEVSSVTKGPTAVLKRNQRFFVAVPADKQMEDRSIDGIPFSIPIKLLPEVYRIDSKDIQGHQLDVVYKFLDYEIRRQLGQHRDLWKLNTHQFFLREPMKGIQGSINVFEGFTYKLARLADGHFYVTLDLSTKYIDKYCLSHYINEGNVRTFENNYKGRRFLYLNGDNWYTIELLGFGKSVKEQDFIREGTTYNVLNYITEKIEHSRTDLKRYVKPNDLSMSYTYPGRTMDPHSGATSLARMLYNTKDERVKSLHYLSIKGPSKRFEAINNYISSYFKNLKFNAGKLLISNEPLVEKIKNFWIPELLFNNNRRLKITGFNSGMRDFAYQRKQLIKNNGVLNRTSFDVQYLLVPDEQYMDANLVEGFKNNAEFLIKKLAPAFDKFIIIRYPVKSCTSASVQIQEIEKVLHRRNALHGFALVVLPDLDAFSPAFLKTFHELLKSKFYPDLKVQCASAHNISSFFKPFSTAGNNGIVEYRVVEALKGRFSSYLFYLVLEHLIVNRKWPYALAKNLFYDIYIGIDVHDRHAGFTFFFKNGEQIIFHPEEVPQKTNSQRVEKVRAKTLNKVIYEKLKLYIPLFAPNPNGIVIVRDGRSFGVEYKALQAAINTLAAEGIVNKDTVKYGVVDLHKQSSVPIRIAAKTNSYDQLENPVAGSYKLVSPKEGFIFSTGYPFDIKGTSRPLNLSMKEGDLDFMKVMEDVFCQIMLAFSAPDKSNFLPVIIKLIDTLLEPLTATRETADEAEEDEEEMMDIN


Target: T1, MbpAgo
Assay: EMSA

| Binder | Kd |
| --- | --- |
| TGAGGTAGTAGGTTGTAT (ssDNA, 5' phosphate) [18 nt 5'P-gDNA (FAM T-gDNA)] | 254 ± 23.3 nM |
| TGAGGTAGTAGGTTGTAT (ssDNA) [18 nt 5'OH-gDNA (FAM T-gDNA)] | 292 ± 25.2 nM |
